The values that follow are results of earlier work, collected in patent US5550213A, “Inhibitors of urokinase plasminogen activator” (Rutgers, The State University of New Jersey, priority 1993, dated 1996).

The target in the data set is urokinase (UK) (Homo sapiens, UniProt P00749). Particulars: from Turpeinen et al. (PSTI), Christensen et al. (PAI-2); serpin Ki not functionally comparable to reversible inhibitors; read-out: Ki (nM) against UK, values obtained from the literature.

B1: PAI-2: placental type PA-inhibitor, a serpin, native inhibitor of urokinase (protein, UniProt P05120 1-415, looked up)
Plasminogen activator …: MEDLCVANTLFALNLFKHLAKASPTQNLFLSPWSISSTMAMVYMGSRGSTEDQMAKVLQFNEVGANAVTPMTPENFTSCGFMQQIQKGSYPDAILQAQAADKIHSSFRSLSSAINASTGNYLLESVNKLFGEKSASFREEYIRLCQKYYSSEPQAVDFLECAEEARKKINSWVKTQTKGKIPNLLPEGSVDGDTRMVLVNAVYFKGKWKTPFEKKLNGLYPFRVNSAQRTPVQMMYLREKLNIGYIEDLKAQILELPYAGDVSMFLLLPDEIADVSTGLELLESEITYDKLNKWTSKDKMAEDEVEVYIPQFKLEEHYELRSILRSMGMEDAFNKGRANFSGMSERNDLFLSEVFHQAMVDVNEEGTEAAAGTGGVMTGRTGHGGPQFVADHPFLFLIMHKITNCILFFGRFSSP
Turning to B1, the Ki was less than 0.01 nM.
